According to PMC6823292, “Molecular structure of human synaptonemal complex protein SYCE1” (Chromosoma, 2019):

Target: the molecule itself
Test: SEC-MALS; 6–20 mg/ml loaded on Superdex 200 Increase 10/300 GL in 20 mM Tris pH 8.0, 150 mM KCl, 2 mM DTT

Protein | stoichiometry N
human SYCE1 core (amino acids 25–179) (domain or fragment, UniProt Q8N0S2 25-179, looked up, also called SYCE1 structural core; source: E. coli BL21(DE3), purified (amylose, anion exchange, TEV cleavage, anion exchange, SEC); not shown: His, N-terminal, cleaved; MBP, N-terminal, cleaved) GQDTSSQKIEDLMEMVQKLQKVGSLEPRVEVLINRINEVQQAKKKANKDLGEARTICEALQKELDSLHGEKVHLKEILSKKQETLRILRLHCQEKESEAHRKHTMLQECKERISALNLQIEEEKNKQRQLRLAFEEQLEDLMGQHKDLWDFHMPE | 2
SYCE1-MBP (C-terminal MBP fusion of SYCE1 core, amino acids 25–179) (domain or fragment, human, UniProt Q8N0S2 25-179, looked up, source: E. coli BL21(DE3), purified; not shown: MBP, C-terminal, kept) GQDTSSQKIEDLMEMVQKLQKVGSLEPRVEVLINRINEVQQAKKKANKDLGEARTICEALQKELDSLHGEKVHLKEILSKKQETLRILRLHCQEKESEAHRKHTMLQECKERISALNLQIEEEKNKQRQLRLAFEEQLEDLMGQHKDLWDFHMPE | 2
MBP-SYCE1-MBP (N- and C-terminal MBP double fusion of SYCE1 core, amino acids 25–179) (domain or fragment, human, UniProt Q8N0S2 25-179, looked up, source: E. coli BL21(DE3), purified; not shown: MBP, N-terminal, kept; MBP, C-terminal, kept) GQDTSSQKIEDLMEMVQKLQKVGSLEPRVEVLINRINEVQQAKKKANKDLGEARTICEALQKELDSLHGEKVHLKEILSKKQETLRILRLHCQEKESEAHRKHTMLQECKERISALNLQIEEEKNKQRQLRLAFEEQLEDLMGQHKDLWDFHMPE | 2
MBP-SYCE1 (N-terminal MBP fusion of SYCE1 core, amino acids 25–179) (domain or fragment, human, UniProt Q8N0S2 25-179, looked up, pMAT11 gives a His-MBP fusion with a TEV site; source: E. coli BL21(DE3), purified; not shown: MBP, N-terminal, kept) GQDTSSQKIEDLMEMVQKLQKVGSLEPRVEVLINRINEVQQAKKKANKDLGEARTICEALQKELDSLHGEKVHLKEILSKKQETLRILRLHCQEKESEAHRKHTMLQECKERISALNLQIEEEKNKQRQLRLAFEEQLEDLMGQHKDLWDFHMPE | 2
human SYCE1 full length (amino acids 1–351) (natural protein, UniProt Q8N0S2 1-351, looked up, synaptonemal complex central element protein 1 (SYCE1), human, full length, amino acids 1–351; also called full-length SYCE1; source: E. coli BL21(DE3), purified (amylose, anion exchange, TEV cleavage, anion exchange, SEC); not shown: His, N-terminal, cleaved; MBP, N-terminal, cleaved) MAGRSLTSKAEPTAGAVDRAEKAGGQDTSSQKIEDLMEMVQKLQKVGSLEPRVEVLINRINEVQQAKKKANKDLGEARTICEALQKELDSLHGEKVHLKEILSKKQETLRILRLHCQEKESEAHRKHTMLQECKERISALNLQIEEEKNKQRQLRLAFEEQLEDLMGQHKDLWDFHMPERLAKEICALDSSKEQLLKEEKLVKATLEDVKHQLCSLCGAEGPSTLDEGLFLRSQEAAATVQLFQEEHRKAEELLAAAAQRHQQLQQKCQQQQQKRQRLKEELEKHGMQVPAQAQSTQEEEAGPGDVASPKPLKGERPGAAHQAGPDVLIGQEDTLHPDLSPRGFQEIKELF | 2
